From US20230071609A1 (Genentech, published 2023)
Substitutions are numbered along the chain they refer to.

T1: APOL6-myc-FLAG (human, UniProt Q9BWW8 1-343)
T1 construct: whole, on cells; In fixed, permeabilized transfected COS cells; untagged APOL6 in the western blots; not shown: C-terminal myc-FLAG tag
T1 sequence (looked up): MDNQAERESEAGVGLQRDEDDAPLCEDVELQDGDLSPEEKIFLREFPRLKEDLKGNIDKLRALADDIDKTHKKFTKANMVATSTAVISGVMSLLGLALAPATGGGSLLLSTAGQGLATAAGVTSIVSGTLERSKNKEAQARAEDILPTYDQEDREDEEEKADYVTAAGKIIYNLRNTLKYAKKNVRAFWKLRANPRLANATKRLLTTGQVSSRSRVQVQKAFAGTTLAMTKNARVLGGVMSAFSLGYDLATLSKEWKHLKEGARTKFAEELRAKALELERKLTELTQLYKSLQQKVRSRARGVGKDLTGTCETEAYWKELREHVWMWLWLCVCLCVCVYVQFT

T2: circulating APOL1 in normal human serum (human, UniProt O14791 28-398)
T2 construct: mature; Serum of healthy volunteers; lipoprotein-associated; also called serum APOL1; HDL APOL1
T2 sequence (looked up): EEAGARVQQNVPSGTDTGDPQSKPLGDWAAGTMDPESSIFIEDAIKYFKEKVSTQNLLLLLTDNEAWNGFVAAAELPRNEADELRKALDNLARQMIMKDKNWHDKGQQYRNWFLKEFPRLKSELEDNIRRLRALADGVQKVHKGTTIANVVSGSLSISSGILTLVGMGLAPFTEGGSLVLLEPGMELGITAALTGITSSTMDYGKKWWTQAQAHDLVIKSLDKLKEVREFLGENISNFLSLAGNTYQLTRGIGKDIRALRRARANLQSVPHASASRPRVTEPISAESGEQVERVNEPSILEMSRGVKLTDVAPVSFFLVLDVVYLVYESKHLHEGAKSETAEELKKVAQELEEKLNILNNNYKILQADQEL

B1: antibody 3.7D6 (antibody, V domains shown)
VH: QIQLVQSGPDLKKPGETVKISCRTSGYAFTNYGVNWVKQAPGKGLKWMGWINTNTGQTTYAEEFRGRFAISLETSASTAFLTISNLKNEDSATYFCARLIYDGDYISSDFWGQGTTLTVSS
VL: DIQMTQSPDSLSASVGETVTITCGASENIYGALNWYQRKQGKSPQLLIYGATNLADGMSSRFSGSRSGRQYSLKISSLHPDDVATYYCQNALSMPYTFGGGTKLEIKR
notes: Mouse mAb, cloned as murine IgG2a LALAPG; those versions are not written separately; also called PFD antibody 3.7D6
B2: antibody 4.17A5 (antibody, V domains shown)
VH: QVQLQQSGPELLKPGASVKISCKGSGYAFSNSWINWVKLRPGQGLEWIGRIYPGDGDTKYNGKFKGKATLTADKSSSTAHMQLRSLTSVDSAVYFCARFPFGKYEGPGAMDYWGQGTSVTVSS
VL: DIQMTQTTSSLSASLGDRVTISCRASQDISSYLNWYQQKPDGTIKLLIYYTSRLHSGVPSRFSGSGSGTDFSLTISNLEQEDIATYFCQQGNTLPYTFGGGTKLEIKR
notes: Mouse mAb (Method #4), cloned as murine IgG2a LALAPG; also called mAb 4.17A5
B3: rabbit monoclonal antibody 5.17D12 (antibody, V domains shown)
VH: QSLEESGGDLVKPGASLTLTCTASGFSFSSNYYMCWVRQAPGKGLEWIACVYVGSGGSTYYASWAKGRFTFSKTSSTTWTLQMTSLTAADTATYFCARDLSYAGDLWGPGTLVTVSS
VL: DPVMTQTPASVSEPVGGTVTINCQASESISSYLAWYQQKPGQPPKLLIYGASNLASGVPSRFKGSGSGTEYTLTISDLECDDAATYYCQSAYYSNSGGHAFGGGTEVVVKG
notes: Rabbit mAb (Method #5), recombinant; also called rabmab 5.17D12
B4: antibody 3.6D12 (antibody, V domains shown)
VH: EVMLVESGGGLVRPGGSLKLSCTASGFTFSRCAMSWVRQTPEKRLEWVSAISRDSTYTYYSDSVKGRFTVSRDNAKNTLYLQMSSLRSEDTAMYYCARQIDDYYVDALDYWGQGTSVTVSS
VL: DVQITQSPSYLAASPGETITINCRASKIISKYLAWYQEKPGKTIKLLIYSGFTLQSGIPSRFSGSGSGTDFTLTISSLEPEDFAMYYCQQHNEYPLTFGAGTKLEIKR
notes: Mouse mAb (Method #3), cloned as murine IgG2a LALAPG; Early screens used hybridoma-purified antibody; also called mAb 3.6D12
B5: antibody 3.1C1 (antibody, V domains shown)
VH: QVQLQQSGPELVKPGASVRISCKASGYTFTNYFIHWVKQRPGQGLEWIGWINPGNLNTKYTEEFKGKATLTADKSSSTAYIQLNSLTSEDSAVYFCVNGNPFVYWGQGTLVTVSA
VL: DIVMTQSPSSLTVIAGEKVTLNCKSSQSLLNSGNQKKYLTWLQQKPGQPPKLLIYWTSTRDSGVPDRFTGSGSGTDFTLTISSVQAEDLAVYYCQNDYSYPLTFGAGTKLEIKR
notes: Mouse mAb, cloned as murine IgG2a LALAPG; not written separately; also called SRA-ID mAb 3.1C1
B6: antibody 3.6E10 (antibody, V domains shown)
VH: QVQLQQSGAELAKPGASVKMSCKASGYIFTSYYLHWVKQRPGQGLEWIGYINPNTGYTEYTQNFKDRATLTADKSSSTAYMQLTSLTSEDSAVYFCVNGNPFVYWGQGTLVTVSA
VL: B5 VL with I14T, A15T, L21M, N22T, K24R, K37N, L42F, D61Y
notes: Mouse mAb, cloned as murine IgG2a LALAPG
B7: antibody 4.12E5 (antibody, V domains shown)
VH: EVQLQQSGPELVKTGASVKISCKASGYSFTGYFMHWVKQSHGKSLEWIGYISCYNGASVYNQRFKGKATFTIDTSSSTAYMQFNSLTSEDSAVYYCARDVLRYPRYAVDYWGQGTSVTVSS
VL: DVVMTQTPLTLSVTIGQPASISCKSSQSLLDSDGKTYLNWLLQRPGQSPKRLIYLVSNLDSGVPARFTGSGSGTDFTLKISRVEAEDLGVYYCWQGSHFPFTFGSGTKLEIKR
notes: as for B6

Molecular target: T1, APOL6-myc-FLAG
Test: immunofluorescence on transfected COS cells; grade
Source text: COS cells were transfected as in FIG. 31A except APOL1 and APOL2 were also C-terminally myc-FLAG tagged. Overlays of APOL with epitope tags: either mouse anti-FLAG-M2 or mouse anti-myc 9E10 for anti-APOL1 rabmabs; or rabbit anti-Myc 71D10 in conjunction with mouse anti-APOL1. Signals indicate the two antibodies overlap (i.e. anti-APOL1 cross-reacts with that APOL); signals (epitope tag only) indicate no cross-reactivity. Alexa647 anti-rabbit or mouse were used for the tags to rule out the possibility that any colocalization was a bleed-through artifact. Sparsely transfected areas were imaged to permit evaluation of background staining in adjacent untransfected cells—DAPI nuclear staining identifies both untransfected and transfected cell nuclei. […] Note that none of the antibodies cross-reacted with the more distantly related APOL6. *, APOL2-myc-FLAG is presumably misfolded, since it is not as cross-reactive as untagged APOL2 (compare FIG. 31A) with several antibodies. Commercial antibodies are Sigma HPA018885, Epitomics EPR2907 (2) (Epito) and Proteintech 11486-2-AP (Ptech).
Cells were plated on LabTekII (Nalge Nunc 154534) slides and fixed at 70-100% confluency. For mAb screening, cells were fixed/permeabilized for 5 min in −20° C. methanol (EMD MX0485-6). For all other experiments, cells were fixed in 3% paraformaldehyde in PBS (EMS 15710) for 20 mins at room temperature, quenched with 50 mM NH₄Cl in PBS for 10 mins, then permeabilized with 0.1% TX-100 in PBS for 4 mins or for 1h in saponin buffer [0.4% saponin (Sigma S7900), 1% bovine serum albumin (BSA; Sigma A2153), 2% fetal bovine serum (Seradigm) in PBS]. First antibodies (stored sterile at 4° C.) were applied for 1 h at room temperature, at 1 μg/ml for screening on transfected cells or at subsequently optimized concentrations for detecting endogenous APOL1. After 3×10 min washes in PBS (for Methanol or TX-100 protocols) or saponin buffer (saponin protocol), secondary antibodies were applied at 1.88 μg/ml for 1 h at room temperature, washed 3× and mounted under No. 1.5 coverslips in ProLong Gold with DAPI (4′,6-diamidino-2-phenylindole; Life Technologies P36931).

| binding result | Binder |
| --- | --- |
| no binding (tested: 1 µg/ml) | B1 |
| no binding (tested: 1 µg/ml) | B2 |
| no binding (tested: 1 µg/ml) | B3 |
| no binding (tested: 1 µg/ml) | B4 |
| no binding (tested: 1 µg/ml) | B5 |
| no binding (tested: 1 µg/ml) | B6 |

Molecular target: T2, circulating APOL1 in normal human serum
Test: summary of the Examples: trypanolysis blocking as proxy for serum APOL1
Method: The trypanolysis assay used herein to text specificity of antibodies for serum APOL1 is as follows. Trypanosoma brucei brucei were obtained from ATCC and cultured in HMI-9 media containing IMDM (Genentech), heat-inactivated (56° C. for 30 min) FBS (Seradigm IXL9/06807/GEN), 1% serum plus (Sigma 14008C), HMI-9 (Genentech) and 1% hypoxanthine (Genentech). Trypanosome lysis was performed by treating 1×10⁵ Trypanosomes with serial dilutions of NHS or recombinant APOL1 for 16 h in a total of 100 μl. Live cell read out was done by the Alamar Blue assay as per the manufacturer's protocol, (Thermo Fisher, DAL1100). Briefly 10 μl of Alamar Blue was added to each well, incubated at 37° C. for 4 h. Red fluorescence, indicating live trypanosomes, was measured on a SpectraMax® fluorimeter powered by SoftMAX® PRO with excitation at 530 nm and emission 590 nm. For the antibody blocking assay, 1% normal human serum was preincubated with 1-10 μg/ml of anti-APOL1 antibody or media at room temperature for 20 minutes followed by addition of trypanosomes. After 16 h, the Alamar Blue assay was performed as above and background values for media only were subtracted and % blocking calculated by normalizing to no antibody control.
Trypanosoma brucei brucei were obtained under MTA from ATCC and cultured in HMI-9 media containing IMDM (Genentech), heat-inactivated (56° C. for 30 min) FBS (Seradigm IXL9/06807/GEN), 1% serum plus (Sigma 14008C), HMI-9 (Genentech) and 1% hypoxanthine (Genentech). Trypanosome lysis was performed by treating 1×10⁵ Trypanosomes with serial dilutions of NHS or recombinant APOL1 for 16 h in a total of 100 μl. Live cell read out was done by the Alamar Blue assay as per the manufacturer's protocol (30) (Thermo Fisher, DAL1100). Briefly 10 μl of Alamar Blue was added to each well, incubated at 37° C. for 4 h. Red fluorescence, indicating live trypanosomes, was measured on a SpectraMax fluorimeter powered by SoftMAX PRO with excitation at 530 nm and emission 590 nm. For the antibody blocking assay, 1% normal human serum was preincubated with 1-10 μg/ml of anti-APOL1 antibody or media at room temperature for 20 mins followed by addition of trypanosomes.

| binding result | Binder |
| --- | --- |
| binds | B7 |
| binds | B2 |
| binds | B3 |
| binds | B4 |
| binds | B5 |
| binds | B6 |
